In patent publication US20100043097:

GST-BRK1, sequence (chain, as listed by the source): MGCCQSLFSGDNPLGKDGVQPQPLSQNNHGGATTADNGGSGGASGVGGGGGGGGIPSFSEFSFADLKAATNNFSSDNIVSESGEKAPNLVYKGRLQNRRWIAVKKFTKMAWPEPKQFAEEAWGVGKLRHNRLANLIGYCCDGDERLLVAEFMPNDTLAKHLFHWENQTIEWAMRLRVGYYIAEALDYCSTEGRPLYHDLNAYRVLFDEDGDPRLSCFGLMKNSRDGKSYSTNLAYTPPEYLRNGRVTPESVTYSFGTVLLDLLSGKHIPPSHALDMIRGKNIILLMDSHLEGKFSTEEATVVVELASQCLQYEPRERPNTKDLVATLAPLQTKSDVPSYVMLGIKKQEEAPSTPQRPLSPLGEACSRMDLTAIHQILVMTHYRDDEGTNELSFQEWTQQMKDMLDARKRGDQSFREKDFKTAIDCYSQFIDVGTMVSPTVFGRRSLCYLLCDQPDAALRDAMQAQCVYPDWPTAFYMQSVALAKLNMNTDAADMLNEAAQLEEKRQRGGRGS

B1: GST-BRI1-KD (protein)
chain: REMRKRRRKKEAELEMYAEGHGNSGDRTANNTNWKLTGVKEALSINLAAFEKPLRKLTFADLLQATNGFHNDSLIGSGGFGDVYKAILKDGSAVAIKKLIHVSGQGDREFMAEMETIGKIKHRNLVPLLGYCKVGDERLLVYEFMKYGSLEDVLHDPKKAGVKLNWSTRRKIAIGSARGLAFLHHNCSPHIIHRDMKSSNVLLDENLEARVSDFGMARLMSAMDTHLSVSTLAGTPGYVPPEYYQSFRCSTKGDVYSYGVVLLELLTGKRPTDSPDFGDNNLVGWVKQHAKLRISDVFDPELMKEDPALEIELLQHLKVAVACLDDRAWRRPTMVQVMAMFKEIQAGSGIDSQSTIRSIEDGGFSTIEMVDMSIKEVPEGKL
in vitro kinase assay (32P autoradiography), reduction of phosphorylation (GST tagged BRK1-S230A): a S230A mutation reduced the phosphorylation by 82%
mass spectrometry of BRI1-phosphorylated BRK1 (GST-BRK1): identified serine 230 of BRK1 as a BRI1 phosphorylation site
